From patent US20220220174A1 (BIMYO, published 2022)

biological target: T1, recombinant BNIP3 (BCL-2 adenovirus E1B 19 kDa interacting protein-3) (mouse, UniProt O55003 1-187, limits assumed, labelled with DyLight 650 for the microarray); test: peptide microarray, immobilised peptide, labelled recombinant BNIP3 in solution
T1 construct: Bought recombinant protein (cusabio); also called recombinant BNIP3 (cusabio)
Experimental: (§1) Interaction studies. For protein-peptide interaction studies, peptide libraries were synthesised and immobilised on microarray slides.
(§2) Microarray. […] As labelling kit a DyLight Microscale Antibody Labeling Kit (Thermo) with label Dylight 650 was used. The assay was performed using the automated TECAN HS4800 microarray processing station. Microarrays were incubated with customer provided samples diluted in blocking buffer for 2 h at 30° C. Before each step, microarrays were washed with washing buffer. Microarrays were scanned using a high-resolution fluorescence scanner. Laser settings and applied resolution were identical for all performed measurements. The resulting images were analyzed und quantified using spot-recognition software GenePix (Molecular Devices). […] For further data evaluation, the so called MMC2 values were determined. The MMC2 equals the mean value of all three instances on the microarray except when the coefficient of variation (CV)—standard-deviation divided by the mean value—is larger 0.5. In this case the mean of the two closest values (MC2) is assigned to MMC2. All steps were performed by JPT Peptide Technologies (Berlin, Germany).

| Binder | Fluorescence intensity [arbitrary units] |
| --- | --- |
| SGEENLQGSWVELHFSN (Peptide immobilised on the microarray; also called BNIP3 4-20) [truncated BNIP3-20A fragment SGEENLQGSWVELHFSN] | 2660 |
| WVELHFSN (Peptide immobilised on the microarray; also called BNIP3 13-20) [truncated BNIP3-20A fragment WVELHFSN] | 14400 |
| MSQSGEENLQGSWVELHFSN (Peptide immobilised on the microarray; also called BNIP3 1-20) [BNIP3-20A peptide sequence MSQSGEENLQGSWVELHFSN (BNIP3 amino acids 1-20, wild type)] | 1040 |
| SWVELHFSN (Peptide immobilised on the microarray; also called BNIP3 12-20) [truncated BNIP3-20A fragment SWVELHFSN] | 4890 |

biological target: T1, recombinant BNIP3 (BCL-2 adenovirus E1B …); test: as above; remark: another data set of the same source
Experimental: as §1, §2

| Binder | Fluorescence intensity [arbitrary units] |
| --- | --- |
| MSQSGEENLQGSWVELHFSN (Peptide immobilised on the microarray; also called BNIP3 1-20) [BNIP3-20A peptide sequence MSQSGEENLQGSWVELHFSN (BNIP3 amino acids 1-20, wild type)] | 1040 |
| MSQSGEENLQGCWVELHFSN (Peptide immobilised on a microarray slide; attachment chemistry not stated., Peptide immobilised on the microarray) [substituted BNIP3-20A peptide MSQSGEENLQGCWVELHFSN (S12 -> C)] | 7040 |
| MSQSGEENLQGSWVELYFSN (Peptide immobilised on a microarray slide; attachment chemistry not stated., Peptide immobilised on the microarray) [substituted BNIP3-20A peptide MSQSGEENLQGSWVELYFSN (H17 -> Y)] | 7990 |
| MSQSGEENLQGSWVELHFFN (Peptide immobilised on the microarray) [substituted BNIP3-20A peptide MSQSGEENLQGSWVELHFFN (S19 -> F)] | 15000 |
| MSQSGEENLQGSWVELCFSN (Peptide immobilised on a microarray slide; attachment chemistry not stated., Peptide immobilised on the microarray) [substituted BNIP3-20A peptide MSQSGEENLQGSWVELCFSN (H17 -> C)] | 6790 |
| MSQSGEENLQGSWVCLHFSN (Peptide immobilised on a microarray slide; attachment chemistry not stated., Peptide immobilised on the microarray) [substituted BNIP3-20A peptide MSQSGEENLQGSWVCLHFSN (E15 -> C)] | 7150 |
| MSQSGYENLQGSWVELHFSN (Peptide immobilised on a microarray slide; attachment chemistry not stated., Peptide immobilised on the microarray) [substituted BNIP3-20A peptide MSQSGYENLQGSWVELHFSN (E6 -> Y)] | 13100 |
| MSQSGEENLQYSWVELHFSN (Peptide immobilised on a microarray slide; attachment chemistry not stated., Peptide immobilised on the microarray) [substituted BNIP3-20A peptide MSQSGEENLQYSWVELHFSN (G11 -> Y)] | 10200 |
